Numbering of substitutions follows the chain as printed.
B1: Fab P2 (Fab, V domains shown)
VH: EVQLLESGGGVVQPGRSLRLSCAASGFTLDTFTMHWVRQSPGKGLEWVALISHDANNKDYADSVKGRFTISRDNSKKLVYLQMDSLRSEDTAVYYCARGGPAYYLYSDVLTGFHNVVGDYWGQGTLVTVSA
VL: not shown
B2: Fab N3 (Fab, V domains shown)
VH: VQLLEQSGAEVKKPGDSLRISCKMSGDSLVWIGWVRQKPGQGLEWMGIINPGDSATNIYPGDSDTRYGPSFQGQVTISIDKSTSTAYLQWNAVKASDTGIYYCARHVPVPISGTFLWREREMHDLGYFDDWGQGTLVIVSS
VL: not shown
B3: Fab P1 (Fab, V domains shown)
VH: EVQLLESGGGVVQPGGSLRLSCAASGFTFTSFTMHWVRQAPGKGLEWVALISHDGSNKDYADSVRGRFTVSRDNSKKMVYLQMSSLRPDDAAVYYCARGGPAYYTYSDTLTGYHNVVGDYWGQGTLVTVSS
VL: ELTQSPGTLSLSPGERATLSCRASQVRGFLAWFQQKPGQAPRLLIYGASNRAPGIPDRFSGSGSGTDFTLTISRLEPEDFAVYYCQQYGDSPPITFGQGTRLEIKR
B4: Fab P1a (Fab, V domains shown)
VH: B3 VH
VL: ELTQSPGTLSLSPGERATLSCRTSQSVSSTYLAWYQQKPGQPPRLLIYGASNRAPGIPDRFSGSGSGTDFTLTISRLEPEDFAVYYCQQYGDSPPITFGQGTRLDIKR
B5: Fab Q1 (Fab, V domains shown)
VH: VQLLEQSGAEVRKPGASVKVSCKASGYTFTNNGLNWVRQAPGQGLEWMGWISPYNGDTDFAHKFQGRISMTTDTSTNTAYMELRSLRSDDTAVYYCARDRNSAGGTWLFRDPPPGSTFFDSWGQGSLVTVSS
VL: not shown
B6: Fab Q2 (Fab, V domains shown)
VH: B5 VH with R12K
VL: ELTQSPASLSLSPGGSATLACRASRGVNSNLAWYHQKPGQAPRLLIYSASTRATGIPGRFSGSGFGTEFTLTINNLQSDDFGVYYCQQYDDTPQITFGQGTRLDIKR
B7: Fab P3 (Fab, V domains shown)
VH: EVQLLESGGGVVQPGKSLRLSCAVSGFTLNTFAMHWVRQVPGKGLEWVALTSHDGSRQDYADSVRGRFTISRDNSKSMVFLLMNSLRAEDTAVYYCVRGGPAYYTYNDVLTGYAYVVGDFWGQGTLVTVSS
VL: not shown
B8: Fab P4 (Fab, V domains shown)
VH: not shown
VL: ELTQSPGTLSLSPGERATLSCRASQSVSSSNLAWFQHKSGRAPRLLIYGASNRAPDIPDRFSGSGSGTDFTLSISRLEPEDFAVYYCQRYGDSPPITFGQGTRLEIKR
B9: Fab P6 (Fab, V domains shown)
VH: EVQLLESGGGVVQPGKSLTVSCAASGFTFSTFTMHWVRQAPGKWLEWVAVISHDGGTEHYADSVTGRFTISRDNSKNTLHMQMNSLRLEDTAVYFCARGGPAYYLYNDVLTGYYNVVGDFWGQGTLVTVSS
VL: B8 VL with T3I, S10F, P13S, L72I
B10: Fab V1 (Fab, V domains shown)
VH: VQLLEQSGAEVQKPGASVKVSCKPSGYIFTNFGISWVRQAPGQGLEWMAWINTYNGKTTYAQSLQGRVTLTTDPYTNTVFMELRSLRSDDTAVYYCARENEGEYVWGHFRSDYWGQGTLVTVSS
VL: ELTQSPSSLSASVGDRVTITCQASQDISNFLNWYQRRPGKAPNLLIYDATHLETGVPSRFSGSGFGTHFTLTINSLQPEDIGTYYCQHFDDVPSFTFGPGTKVDLKR
B11: Fab N1 (Fab, V domains shown)
VH: VQLLEQSGPEVKKPGDSLRISCKMSGDSLVTTWIGWVRQKPGQGLEWMGIINPGDSSTNIYPGDSATRYGPSFQGQVTISIDKSTSTAYLQWNAVKPSDTGIYYCARHVPVPISGTFLWREREMHDFGYFDDWGQGTLVIVSS
VL: ELTQSPGTLSLSPGERATLSCRASQSVSSSYLAWYQQKPGQAPRLLIYGASNRAAGIPDRFSGSGSGADFTLTISRLEPEDFAVYYCQQYGSSLITFGQGTRLEIKR
B12: Fab N4 (Fab, V domains shown)
VH: B11 VH with A94N, P97A
VL: ELTLTQSPGTLSLSPGERATLSCRASQSVSNNYLAWYQQKPGQAPRLLIYGASSRATGIPDRFSGSGSGTGFTLIISRLEPEDFAVYYCQQYGSSSITFGQGTRLEIKR
B13: Fab N2 (Fab, V domains shown)
VH: B11 VH with A94T
VL: ELTQSPGTLSLFPGERATLSCRASQSILGRYLAWYQQKGGRAPRLLIFGASKRATGIPDRFSGSGSGTDFTLTIGRLEPEDFAVYYCQHYGSSITFGQGTRLDIKR
B14: Fab O1 (Fab, V domains shown)
VH: VQLLEQSGAEVKKAGESVRLSCKASGYRFGDYWIAWVRQLPGRAPEWMGIIYPDDSDTKYSPSFQGQVTISADKSIRTTFLDWGSLKASDTAIYYCARGCLGAKCYYPHYYYGLDVWGQGTTVIVSS
VL: ELTQSPSSLSASVGDRVTITCRATQGIDNYLNWYQQKPGKPPRLLIYGASSLQSGVPSRFSGGGSGTHFTLTITNLQPEDFATYYCQQSYSTPPETFGQGTKVEIKR

Tests used:
Test in all cases: ELISA, Fab on E1E2 antigen
[1] = target: HCV E1E2 antigen, isolate UKN1B12.16 (hepatitis C virus, isolate UKN1B12.16)
[2] = target: HCV E1E2 antigen, isolate OH8 (hepatitis C virus, isolate OH8)
[3] = target: HCV E1E2 antigen, isolate CH35 (hepatitis C virus, isolate CH35)
[4] = target: HCV E1E2 antigen, isolate J6E3 (hepatitis C virus, isolate J6E3, UniProt P26660 192-383; P26660 384-750)
[5] = target: T1, HCV E1E2 antigen, isolate JFH (hepatitis C virus, isolate JFH, UniProt Q99IB8 192-383; Q99IB8 384-750)
T1 construct: also called JFH-1

[6] = target: HCV E1E2 antigen, isolate UKN2B1.1 (hepatitis C virus, isolate UKN2B1.1)
[7] = target: HCV E1E2 antigen, isolate UKN3A1.28c (hepatitis C virus, isolate UKN3A1.28c)
[8] = target: HCV E1E2 antigen, isolate UKN4.21.16 (hepatitis C virus, isolate UKN4.21.16)
[9] = target: HCV E1E2 antigen, isolate UKN5.15.7 (hepatitis C virus, isolate UKN5.15.7)
[10] = target: HCV E1E2 antigen, isolate UKN6.5.8 (hepatitis C virus, isolate UKN6.5.8)

Binder	OD 450 nm [1] [OD 450 nm]	OD 450 nm [2] [OD 450 nm]	OD 450 nm [3] [OD 450 nm]	OD 450 nm [4] [OD 450 nm]	OD 450 nm [5] [OD 450 nm]	OD 450 nm [6] [OD 450 nm]	OD 450 nm [7] [OD 450 nm]	OD 450 nm [8] [OD 450 nm]	OD 450 nm [9] [OD 450 nm]	OD 450 nm [10] [OD 450 nm]
B1	0.59	1	0.47	0.6	0.88	0.18	1.05	0.78	0.25	0.22
B2	0.62	1.32	0.59	0.66	1.2	0.29	1.27	0.96	0.37	0.23
B3	0.26	0.8	0.27	0.08		0.03	0.98	0.62	0.17	0.06
B4	0.15	0.24	0.08	0.03	0	0	0.18	0.04	-0.04	0.05
B5	0.38	0.96	0.48	0.19	0.43	0.03	1.07	0.85	0.3	0.1
B6	0.21	0.43	0.19	0.25	0.18	0.15	0.35	0.17	0.05	0.16
B7	0.2	0.36	0.11	0.11	0	0	0.33	0.15	0.06	0.03
B8	0.59	1.15	0.52		0.45	0.09	1.07	0.99	0.31	0.19
B9	0.26	0.46	0.21	0.02	0	0.13	0.37	0.23	0.08	0.12
B10	0.16	1.35	0.77			0.3	0.06	1.02	0.3	0.05
B11	0.65	1.13	0.59	0.64	0.99	0.33	1.08	0.93	0.43	0.29
B12	1.06	1.75	1.03	0.99	1.57	0.48	1.73	1.49	0.71	0.44
B13	0.81	1.44	0.82	0.92	1.34	0.44	1.36	1.09	0.46	0.4
B14	0.17	0.44	0.27	0.05	0	0.02	0.48	0.57	0.1	0.02

Source: patent publication US20110311550A1 (Scripps Research, published 2011)
